The target in this test is T1, Ron (Sema IPT1)-IgG fusion protein (human, UniProt Q04912 25-683, limits assumed).
T1 construct: domain: Sema IPT1; Captured on the chip or plate through an anti-human IgG (Fc specific) antibody; also called Ron-Fc; human Ron; not shown: IgG (Fc) portion, captured by rabbit anti-human IgG Fc antibody
T1 sequence (looked up): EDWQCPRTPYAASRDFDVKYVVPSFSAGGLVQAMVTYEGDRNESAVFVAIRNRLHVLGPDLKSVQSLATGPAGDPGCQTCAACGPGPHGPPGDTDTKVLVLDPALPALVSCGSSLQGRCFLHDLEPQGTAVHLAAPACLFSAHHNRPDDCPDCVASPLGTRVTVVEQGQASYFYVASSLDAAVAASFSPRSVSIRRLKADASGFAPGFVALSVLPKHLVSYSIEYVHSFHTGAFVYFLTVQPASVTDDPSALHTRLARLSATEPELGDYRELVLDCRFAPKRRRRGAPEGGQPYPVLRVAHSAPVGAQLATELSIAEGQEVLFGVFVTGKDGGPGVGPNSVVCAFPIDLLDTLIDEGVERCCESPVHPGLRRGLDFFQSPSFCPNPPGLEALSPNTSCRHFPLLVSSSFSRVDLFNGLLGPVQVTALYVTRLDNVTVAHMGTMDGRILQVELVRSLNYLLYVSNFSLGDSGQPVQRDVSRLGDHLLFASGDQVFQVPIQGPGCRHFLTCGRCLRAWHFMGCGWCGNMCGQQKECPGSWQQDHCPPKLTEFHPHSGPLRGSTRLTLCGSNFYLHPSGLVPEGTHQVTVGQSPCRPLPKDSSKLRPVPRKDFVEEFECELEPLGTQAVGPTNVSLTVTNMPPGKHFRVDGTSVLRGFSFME
Put plainly: ELISA, Ron (Sema IPT1)-IgG captured on an anti-human IgG Fc coated plate, His tagged MSP detected with anti-His-HRP, four parameter fit; ELISA, not SPR; printed only as 'MSP'. The method, then: To determine binding affinity of hepsin-activated MSP to human Ron, surface plasmon resonance measurements on a BIAcore™-3000 instrument (GE Health Care, NJ) were performed. Rabbit anti-human IgG were chemically immobilized (amine coupling) on CM5 biosensor chips and the Ron (Sema IPT1)-IgG fusion protein was captured to give approximately 250 response units (RU). For kinetics measurements, different concentration of either hepsin-activated MSP or a commercially available MSP (R&D systems) were injected in HBS-P buffer at 25° C. with a flow rate of 30 μl/min. Association rates (kₒₙ) and dissociation rates (koff) were obtained by using a simple one-to-one Langmuir binding model (BIA-Evaluation) and the equilibrium dissociation constants (KD) were calculated (koff/kₒₙ). […] Bound MSP was detected using anti-His-HRP (Qiagen, Valencia, Calif.) followed by addition of TMB/H₂O₂ substrate (KPL, Gaithersburg, Md.). The reaction was stopped with 1M H₃PO₄ and the A₄₅₀ was measured on a Molecular Devices (Sunnyvale, Calif.) SpectraMax Plus³⁸⁴ microplate reader. The effective concentration to give half-maximal binding (EC₅₀) was determined by a four parameter fit using Kaleidagraph (Synergy Software, Reading, Pa.). […]
In general terms: ELISA stands for enzyme-linked immunosorbent assay.

The text below walks through data of patent US20120282271A1 (Genentech, published 2012).

B1: hepsin-activated MSP (recombinant human macrophage-stimulating protein, C672A, cleaved by hepsin at Arg483-Val484) (ligand)
chain 1: QRSPLNDFQVLRGTELQHLLHAVVPGPWQEDVADAEECAGRCGPLMDCRAFHYNVSSHGCQLLPWTQHSPHTRLRRSGRCDLFQKKDYVRTCIMNNGVGYRGTMATTVGGLPCQAWSHKFPNDHKYTPTLRNGLEENFCRNPDGDPGGPWCYTTDPAVRFQSCGIKSCREAACVWCNGEEYRGAVDRTESGRECQRWDLQHPHQHPFEPGKFLDQGLDDNYCRNPDGSERPWCYTTDPQIEREFCDLPRCGSEAQPRQEATTVSCFRGKGEGYRGTANTTTAGVPCQRWDAQIPHQHRFTPEKYACKDLRENFCRNPDGSEAPWCFTLRPGMRAAFCYQIRRCTDDVRPQDCYHGAGEQYRGTVSKTRKGVQCQRWSAETPHKPQFTFTSEPHAQLEENFCRNPDGDSHGPWCYTMDPRTPFDYCALRRCADDQPPSILDPPDQVQFEKCGKRVDRLDQRRSKLR
chain 2: VVGGHPGNSPWTVSLRNRQGQHFCGGSLVKEQWILTARQCFSSCHMPLTGYEVWLGTLFQNPQHGEPSLQRVPVAKMVCGPSGSQLVLLKLERSVTLNQRVALICLPPEWYVVPPGTKCEIAGWGETKGTGNDTVLNVALLNVISNQECNIKHRGRVRESEMCTEGLLAPVGACEGDYGGPLACFTHNAWVLEGIIIPNRVCARSRWPAVFTRVSVFVDWIHKVMRLG
notes: Made by treating recombinant pro-MSP (C672A, from CHO cells) with the recombinant hepsin extracellular domain; It is a disulfide-linked α/β heterodimer; also called hepsin-treated pro-MSP
B1: the 50% effective concentration (EC50) (in general, the concentration giving half of the maximal effect) was 0.519 nM.
